{"source": "patent US20220332804A1", "about": "(CSL INNOVATION, published 2022)", "binders": {"B1": {"name": "RF16-226 (antibody, human IgG4 S228P, lambda)", "heavy": "not shown", "light": "SYELTQPPSVSVSPGQTARITCSGDALTSKYVAWYQQKSGLAPLLVIYEDTRRPSGIPAKFSGSSSGSVATLTISGAHGDDEADYYCYSTDASGHQRVFGGGTKLTVLSQPKAAPSVTLFPPSSEELQANKATLVCLISDFYPGAVTVAWKADGSPVKAGVETTKPSKQSNNKYAASSYLSLTPEQWKSHRSYSCQVTHEGSTVEKTVAPTECS", "notes": "pH-dependent anti-C2 antibody from a phage display library; also called WT"}}, "assay_in_all_cases": "SPR, KD relative to WT C2;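 note: biacore SPR at 37 °C, anti-C2 mAbs captured via immobilised goat anti-human IgG, C2 alanine or serine surface mutants as analytes, 1:1 model fitted, double-referenced sensograms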", "key": {"human C2 L279A": {"biological_target": "T1, human C2 L279A (human, UniProt P06681 21-752)", "T1 sequence": "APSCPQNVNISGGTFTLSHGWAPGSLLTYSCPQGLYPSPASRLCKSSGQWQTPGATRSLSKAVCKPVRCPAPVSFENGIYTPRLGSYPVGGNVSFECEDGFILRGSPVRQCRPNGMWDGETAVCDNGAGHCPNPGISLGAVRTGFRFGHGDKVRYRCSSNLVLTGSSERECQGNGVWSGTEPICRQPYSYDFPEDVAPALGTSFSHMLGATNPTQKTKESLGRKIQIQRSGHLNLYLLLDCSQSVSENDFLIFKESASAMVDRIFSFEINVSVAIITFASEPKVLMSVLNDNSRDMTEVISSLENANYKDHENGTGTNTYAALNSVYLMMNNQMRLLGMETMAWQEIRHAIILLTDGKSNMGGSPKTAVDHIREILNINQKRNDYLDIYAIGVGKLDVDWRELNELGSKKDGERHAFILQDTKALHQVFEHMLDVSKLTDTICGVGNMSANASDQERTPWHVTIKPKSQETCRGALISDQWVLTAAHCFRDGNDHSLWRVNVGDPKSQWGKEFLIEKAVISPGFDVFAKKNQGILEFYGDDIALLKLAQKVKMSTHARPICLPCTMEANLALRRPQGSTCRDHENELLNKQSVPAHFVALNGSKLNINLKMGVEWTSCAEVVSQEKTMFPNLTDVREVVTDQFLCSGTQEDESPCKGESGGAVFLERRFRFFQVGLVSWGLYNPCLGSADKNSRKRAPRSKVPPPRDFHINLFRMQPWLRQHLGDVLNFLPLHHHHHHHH"}, "[1]": {"biological_target": "T2, human complement C2 (wild type) (human, UniProt P06681 21-752)", "T2 construct": "Full-length human C2 (NP_000054) with C-terminal 8x His tag, secreted from Expi293F cells and purified from the supernatant; also called WT; huC2", "T2 sequence": "T1 sequence with A259L"}, "human C2 D561A": {"biological_target": "T3, human C2 D561A (human, UniProt P06681 21-752)", "T3 sequence": "T1 sequence with A259L, D541A"}}, "note": "Changes are numbered by the printed parent chain."}
{"binder": "B1", "values": [{"measurement": "Fold diff", "setting": "human C2 L279A", "result": 5, "unit": "fold"}, {"measurement": "Fold diff", "setting": "[1]", "result": 1, "unit": "fold"}, {"measurement": "Fold diff", "setting": "human C2 D561A", "result": 10, "unit": "fold"}]}
